Where two headings read alike, the source gives them in different places.

Experiment [1] concerns the target T1, Recombinant receptor-binding motif (RBM, residues 437-508) of SARS-CoV-2 spike (S) protein with N-terminal … (SARS-CoV-2, UniProt P0DTC2 437-508).
Experiment [2] concerns the target T1, Recombinant receptor-binding motif …. This is another data set of the same source.
Another experiment has as its target T2, TN.
T2 single chain: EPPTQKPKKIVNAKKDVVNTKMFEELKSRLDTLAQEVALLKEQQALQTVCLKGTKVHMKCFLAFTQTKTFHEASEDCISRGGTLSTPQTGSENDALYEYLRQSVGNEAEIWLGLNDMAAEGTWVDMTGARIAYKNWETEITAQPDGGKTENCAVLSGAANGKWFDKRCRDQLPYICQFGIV

For experiment [3], the target named is T1, Recombinant receptor-binding motif …. The source holds these as a separate data set.

B1: Clone 27B12 (mAb8) (antibody, V domains shown)
VH: DVKLVESGGGLVKLGGSLKLSCAASGFTFSTDYMSWVRQSPEKRLELVAAINSNGGTTYYPDTVKGRFIISRDNAKNTLYLQMSSLRSEDTALYYCARQVKNGLDYWGQGTSVTVSS
VL: DIQMTQTTSSLSASLGDRVTISCRASQDISNYLNWYQQKPDGTVKLLIYKTSRLHSGVPSRFRGSGSGTDYSLTISNLEEEDVATYFCQQGNTLPPTFGGGTKLEIK
Regarding B1, the Kd (as a rule, the free concentration of one partner at which half of the binding sites on the other are occupied at equilibrium, for simple one-to-one binding) in experiment [1] amounted to 17.4 nM; in experiment [2], 57.4 nM; with TN it was 2.02 nM; in experiment [3], 17.4 nM.

B2: Clone 25B2 (mAb6) (antibody, V domains shown)
VH: DVNLVESGGGLVKLGGSLKLSCADSGFTFSSYYMSWVRQTPEKRLELVAAINSNGGRTYYPDTVKGRFTISRDNAKNTLYLQMSSLKSEDTALYYCARQGKNGLDYWGQGTSVTVSS
VL: DIQMTQTTSSLSASLGDRVTISCRASQDISNHLNWYQQKPDGTIKLLIYYTSRLHSGVPSRFSGSGSGTDFSLSISNLEQEDIATYFCQQGKTLPPTFGGGTKLEIK
For the molecule B2, the Kd is 180 nM in experiment [1], 0.915 nM with TN and 180 nM in experiment [3].

B3: 23F6 (mAb5) (antibody, V domains shown)
VH: DVKLVESGGGLVKLGGSLKLSCAASGFTFSSSYMSWVRQTPEKRLELVAAINNNGGTTYYPDTVKGRFTISRDNAKNTLYLQMSSLKSEDTALYYCTRQGKNGLDYWGQGTSVTVSS
VL: DIQMTQTTSSLSASLGDRVTISCRASQDIGNLLNWYQQKPDGTVKLLISYTSRLHSGVPSRFSGSGSGTDYSLTITNLEQEDIATYFCQQANTLPPTFGGGSKLEIK
B3: the Kd with TN was 8.03 nM.

B4: Clone 18B1 (mAb2) (antibody, V domains shown)
VH: DVKLVESGGGLVNLGGSLKLSCAASGFTFSSDYMSWVRQIPEKRLELVAAINSNGGTTYYPDTVKGRFTISRDNAKNTLYLQMSSLKSEDTALYYCARQGKNGMDYWGQGTSVTVSS
VL: DIQMTQTTSSLSASLGDRVTISCRASQDISNHLNWYQQRPDGTVKLLIYYTSRLHSGVPSRFSGSGSGTDYSFTITNLDQEDIATYFCQQGKTLPPTFGGGTKLEIK
Turning to B4, the Kd in experiment [1] came to 62.8 nM; with TN, 0.114 nM; in experiment [3], 62.8 nM.
